Data published in doi:10.1101/2024.02.04.578783.

How the values were obtained:
BCL2 D103E-mCherry = BCL2 D103E-mCherry (UniProt P10415); assay: single-molecule pull-down and co-IP
BCL2-mCherry (wild type) = BCL2-mCherry (wild type) (UniProt P10415); assay: single-molecule pull-down and co-IP

Kd (BCL2 D103E-mCherry) | Kd (BCL2-mCherry (wild type)) | Substance
32.1 nM | 53.6 nM | BH3 domain of BIM, eGFP-labeled (domain or fragment)
 | 27.3 nM | BIMEL, TMD-truncated, eGFP-labeled (domain or fragment)
 | 63.3 nM | BIML, TMD-truncated, eGFP-labeled (domain or fragment)
 | 15.7 nM | BIMS, TMD-truncated, eGFP-labeled (domain or fragment)
